Publication PMC6096048, “The Cytochrome bd Complex Is Essential for Chromate and Sulfide Resistance and Is Regulated by a GbsR-Type Regulator, CydE, in Alishewanella Sp. WH16-1”

Molecular target: T1, CydE (GbsR-type regulator) (Alishewanella sp. WH16-1, UniProt A0ABQ3KUT0 1-187)
T1 sequence: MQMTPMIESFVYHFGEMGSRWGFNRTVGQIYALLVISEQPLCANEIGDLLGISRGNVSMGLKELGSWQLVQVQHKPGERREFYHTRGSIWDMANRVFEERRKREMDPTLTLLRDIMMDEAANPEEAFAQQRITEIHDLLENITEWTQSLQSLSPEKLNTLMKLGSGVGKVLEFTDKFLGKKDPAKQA
Assay: EMSA; ethidium bromide stain; EMSA: 20 uL with 2 uL 10x binding buffer (listed as 10 mM Tris pH 7.5, 10 mM EDTA, 1 mM KCl, 1 mM DTT, 50% glycerol, 0.1 mg/mL BSA), 37 C 30 min, 8% native PAGE in 0.5x TGE pH 8.0; footprinting: same mix, DNase I 10 min at room temperature
Conditions: protein: recombinant; tags: His6 (pET28a); chain copies: 2; (synthesized)

B1: CydE binding site 1 (dsDNA)
DNA 1: TATTTCAGAAATTTCTGAAAGTTCA
DNA 2: TGAACTTTCAGAAATTTCTGAAATA
- binding result: binds

B2: CydE binding site 2 (dsDNA)
DNA 1: GGGATGCGCATATGCAAAT
DNA 2: ATTTGCATATGCGCATCCC
- binding result: binds
